Assay results published in US20260116921A1, “PEPTIDE INHIBITORS OF INTERLEUKIN-23 RECEPTOR AND THEIR USE TO TREAT INFLAMMATORY DISEASES” (priority 2018, published 2026).
Numbered stars: 1 amine (or outer) side, 2 acyl side, 3 side chain; on linkers, the order of the positions; unused ones are H or OH. Bridge positions count the residues as written; N and C are the ends. Square brackets hold non-standard residues; d marks the D form. Trp(7-Et) = 7-ethyl-tryptophan, CCc1cccc2c(C[C@H](N[*:1])C(=O)[*:2])c[nH]c12; His(π-Bom) = N[C@@H](Cc1cncn1COCc1ccccc1)C(=O)O; Trp(7-Me) = Cc1cccc2c(C[C@H](N)C(=O)O)c[nH]c12; 2Nal = N[C@@H](Cc1ccc2ccccc2c1)C(=O)O; AEF = NCCOc1ccc(C[C@H](N)C(=O)O)cc1; Cit = NC(=O)NCCC[C@H](N)C(=O)O; Pen = CC(C)(S)[C@H](N)C(=O)O; αMeK = C[C@](N)(CCCCN)C(=O)O; NMeA = CN[C@@H](C)C(=O)O

T1: IL-23R (human, UniProt Q5VWK5 24-629)
T1 sequence (looked up): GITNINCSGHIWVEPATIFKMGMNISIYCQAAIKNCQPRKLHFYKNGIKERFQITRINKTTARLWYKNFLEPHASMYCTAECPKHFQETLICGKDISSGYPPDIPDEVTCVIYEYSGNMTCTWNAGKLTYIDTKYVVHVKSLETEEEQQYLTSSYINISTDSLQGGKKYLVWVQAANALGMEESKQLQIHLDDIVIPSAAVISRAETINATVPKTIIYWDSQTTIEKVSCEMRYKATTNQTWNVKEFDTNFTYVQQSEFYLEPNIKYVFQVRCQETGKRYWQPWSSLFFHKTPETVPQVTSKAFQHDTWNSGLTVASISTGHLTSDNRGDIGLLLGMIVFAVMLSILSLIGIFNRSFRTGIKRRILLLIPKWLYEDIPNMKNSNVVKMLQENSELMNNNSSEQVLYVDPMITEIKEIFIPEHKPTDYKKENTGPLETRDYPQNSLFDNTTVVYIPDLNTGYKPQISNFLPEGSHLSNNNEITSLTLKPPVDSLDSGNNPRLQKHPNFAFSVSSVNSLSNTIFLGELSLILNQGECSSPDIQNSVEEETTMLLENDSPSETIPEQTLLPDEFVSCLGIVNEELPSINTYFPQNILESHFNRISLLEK


Biological target: T1, IL-23R
Assay: cell-based or functional assay

Binder | pStat3 HTRF (nM) IC50 [nM]
XNTXKXXXXKNX (Ac-[Pen]-NT-[W(7-Me)]-[Lys(Ac)]-[Pen]-Phe[4-(2-aminoethoxy)]-[2-Nal]-[a-MeLys]-[Lys(Ac)]-N-[Cit]-NH2; Pen-Pen disulfide) [SEQ ID NO: 249] | < 1
Ac-[Pen]NT[Trp(7-Me)][Cit][Pen][AEF][2Nal][αMeK]K(Ac)N[dR]-NH2 (disulfide 1-6 (inferred)) [SEQ ID NO: 256] | < 1
Ac-[Pen]NT[Trp(7-Me)][Cit][Pen][AEF][2Nal][αMeK]K(Ac)NS-NH2 (disulfide 1-6 (inferred)) [SEQ ID NO: 260] | < 1
Ac-[Pen]NT[Trp(7-Me)][Cit][Pen][AEF][2Nal][αMeK]K(Ac)N[dT]-NH2 (disulfide 1-6 (inferred)) [SEQ ID NO: 263] | < 1
Ac-[Pen]NT[Trp(7-Me)][Cit][Pen][AEF][2Nal][αMeK]K(Ac)N[NMeA]-NH2 (disulfide 1-6; not fully specified; printed as Ac-[Pen]-NT-[W(7-Me)]-[Cit]-[Pen]-Phe[4-(2-aminoethoxy)]-[2-Nal]-[a-MeLys]-[Lys(Ac)]-[N-MeAla]-NH2) [SEQ ID NO: 265] | < 1
XNTXQXXXXKNX (Ac-[Pen]-N-T-[W(7-Me)]-Q-[Pen]-Phe[4-(2-aminoethoxy)]-[2-Nal]-[Achc]-[Lys(Ac)]-N-[bA]-NH2; Pen-Pen disulfide) [SEQ ID NO: 274] | < 1
XNTXQXXXXKNX (Ac-[Pen]-N-T-[W(7-Me)]-Q-[Pen]-Phe[4-(2-aminoethoxy)]-[2-Nal]-[DiethylGly]-[Lys(Ac)]-N-[bA]-NH2; Pen-Pen disulfide) [SEQ ID NO: 276] | < 1
XNTXQXXXXKNX (Ac-[Pen]-N-T-[W(7-Me)]-Q-[Pen]-Phe[4-(2-aminoethoxy)]-[2-Nal]-[Acbc]-[Lys(Ac)]-N-[bA]-NH2; Pen-Pen disulfide) [SEQ ID NO: 277] | < 1
Ac-[Pen]NT[Trp(7-Et)]K(Ac)[Pen][AEF][2Nal][αMeK]K(Ac)N[dL]-NH2 (disulfide 1-6 (inferred)) [SEQ ID NO: 284] | < 1
Ac-[Pen]NT[Trp(7-Me)]K(Ac)[Pen][His(π-Bom)][2Nal][αMeK]K(Ac)N[dL]-NH2 (disulfide 1-6) [SEQ ID NO: 291] | > 100
